Experimental findings from patent US20240158509A1 (MOMENTA PHARMACEUTICALS, published 2024) are described below.

Assay [1] has as its target endogenously expressed human FcRn (human, UniProt P55899 24-365; P61769 21-119). As to the kind of experiment: cell-based or functional assay.
The target of assay [2] is T1, endogenous cynomolgus monkey FcRn in monocytes (cynomolgus monkey, UniProt Q8SPV9 24-365; Q8SPW0 21-119).
T1 construct: whole, on cells; Target occupancy was measured ex vivo by FACS on fixed and permeabilized monocytes
T1 sequence (Q8SPV9 24-365, chain 1 of 2): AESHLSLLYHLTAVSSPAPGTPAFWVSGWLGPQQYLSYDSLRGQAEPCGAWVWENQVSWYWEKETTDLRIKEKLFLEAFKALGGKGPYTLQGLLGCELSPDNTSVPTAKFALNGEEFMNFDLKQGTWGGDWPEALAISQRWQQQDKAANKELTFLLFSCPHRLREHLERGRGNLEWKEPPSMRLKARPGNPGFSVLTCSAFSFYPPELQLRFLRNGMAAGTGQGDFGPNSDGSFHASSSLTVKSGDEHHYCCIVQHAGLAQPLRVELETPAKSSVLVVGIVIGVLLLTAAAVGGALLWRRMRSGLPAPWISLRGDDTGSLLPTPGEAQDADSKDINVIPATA
T1 sequence (Q8SPW0 21-119, chain 2 of 2): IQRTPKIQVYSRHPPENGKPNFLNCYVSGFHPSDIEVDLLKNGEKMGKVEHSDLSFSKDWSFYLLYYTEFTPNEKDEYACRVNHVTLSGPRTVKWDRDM
The assay is described as follows: target occupancy in vivo: monocytes from lysed whole blood of cynomolgus monkeys after one i.v. dose, fixed and permeabilized, unoccupied FcRn stained with Dy650-labeled N027, FACS.

Chain of endogenously expressed human FcRn (P55899 24-365, chain 1 of 2): as the sequence (Q8SPV9 24-365, chain 1 of 2) above, with D39N, Q44E, S99G, G189S, N190S, M217L, T269S, S319V, S332L, I335V counted along it
Chain of endogenously expressed human FcRn (P61769 21-119, chain 2 of 2): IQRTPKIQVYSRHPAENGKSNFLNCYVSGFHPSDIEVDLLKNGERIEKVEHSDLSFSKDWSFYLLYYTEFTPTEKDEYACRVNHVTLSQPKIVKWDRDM

B1: N027 (antibody, human IgG1, lambda, N297A)
heavy: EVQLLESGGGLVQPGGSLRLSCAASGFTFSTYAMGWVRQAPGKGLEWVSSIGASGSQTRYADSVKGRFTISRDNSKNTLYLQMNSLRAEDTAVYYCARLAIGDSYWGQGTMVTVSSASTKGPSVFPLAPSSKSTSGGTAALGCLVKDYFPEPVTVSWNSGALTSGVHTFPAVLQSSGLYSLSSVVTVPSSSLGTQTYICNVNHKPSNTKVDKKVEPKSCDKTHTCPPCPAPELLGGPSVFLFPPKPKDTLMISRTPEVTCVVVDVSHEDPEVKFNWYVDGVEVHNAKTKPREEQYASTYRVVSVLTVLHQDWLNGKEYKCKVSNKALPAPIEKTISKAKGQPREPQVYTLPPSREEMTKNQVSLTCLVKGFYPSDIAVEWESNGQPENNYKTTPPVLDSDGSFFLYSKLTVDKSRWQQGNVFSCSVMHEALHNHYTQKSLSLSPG
light: QSALTQPASVSGSPGQSITISCTGTGSDVGSYNLVSWYQQHPGKAPKLMIYGDSERPSGVSNRFSGSKSGNTASLTISGLQAEDEADYYCSSYAGSGIYVFGTGTKVTVLGQPKAAPSVTLFPPSSEELQANKATLVCLISDFYPGAVTVAWKADSSPVKAGVETTTPSKQSNNKYAASSYLSLTPEQWKSHKSYSCQVTHEGSTVEKTVAPTECS
notes: Full-length IgG; In the occupancy assays unlabeled N027 was followed by dye-labeled N027 (Dy650, VivoTag645); DyLight594-N027 was used for imaging; also called M281; anti-FcRn antibody N027
For the molecule B1, in assay [1], the “intracellular IgG accumulation (VivoTag645-IgG, gMFI), ~IC50, HAECs” value was around 0.12 µg/mL; the “intracellular IgG accumulation (VivoTag645-IgG, gMFI), ~IC50, HUVECs” value was around 0.15 µg/mL; the “intracellular IgG accumulation (VivoTag645-IgG, gMFI), ~IC50, HVTs” value is around 0.07 µg/mL. Also, in assay [2], the binding result is “binds”.
